Measured values reported in patent publication US10370647B2 (priority 2015, dated 2019).

Assays:
KFtx series = format: cell-based; conditions: 72 hours
ERK = assay: Change in pERK/tERK by EGF stimulation (In-Cell ELISA); format: cell-based; conditions: all cells (Low, UCA1 Low, Empty Low, KFtx); 0.2 ng/μl EGF, 30 minutes; 10% or 0.5% FBS
Method: The KFtx series (Low, UCA1 Low, Empty Low, and KFtx) were seeded at a cell density of 6×10^3/well in 10% FBS-containing RPMI on a 96-well plate, and were then cultured at 37° C. for 12 hours. Thereafter, the medium was exchanged with RPMI containing 10% FBS or 0.5% FBS. The cells were further cultured at 37° C. for 24 hours, and the medium was then exchanged with another one, to result in an EGF concentration of 0.2 ng/μl. After 30 minutes of EGF stimulation, tERK (total-ERK) and pERK (phosphorylated-ERK) were measured using Pierce Colorimetric In-Cell ELISA Kits (n=3). […] In addition, it was confirmed that, in all cells, pERK was activated by EGF stimulation and the percentage of the pERK was increased.

B1: EGF (protein, UniProt P01133 23-1207, looked up)
Pro-epidermal growth factor: PQHWSCPEGTLAGNGNSTCVGPAPFLIFSHGNSIFRIDTEGTNYEQLVVDAGVSVIMDFHYNEKRIYWVDLERQLLQRVFLNGSRQERVCNIEKNVSGMAINWINEEVIWSNQQEGIITVTDMKGNNSHILLSALKYPANVAVDPVERFIFWSSEVAGSLYRADLDGVGVKALLETSEKITAVSLDVLDKRLFWIQYNREGSNSLICSCDYDGGSVHISKHPTQHNLFAMSLFGDRIFYSTWKMKTIWIANKHTGKDMVRINLHSSFVPLGELKVVHPLAQPKAEDDTWEPEQKLCKLRKGNCSSTVCGQDLQSHLCMCAEGYALSRDRKYCEDVNECAFWNHGCTLGCKNTPGSYYCTCPVGFVLLPDGKRCHQLVSCPRNVSECSHDCVLTSEGPLCFCPEGSVLERDGKTCSGCSSPDNGGCSQLCVPLSPVSWECDCFPGYDLQLDEKSCAASGPQPFLLFANSQDIRHMHFDGTDYGTLLSQQMGMVYALDHDPVENKIYFAHTALKWIERANMDGSQRERLIEEGVDVPEGLAVDWIGRRFYWTDRGKSLIGRSDLNGKRSKIITKENISQPRGIAVHPMAKRLFWTDTGINPRIESSSLQGLGRLVIASSDLIWPSGITIDFLTDKLYWCDAKQSVIEMANLDGSKRRRLTQNDVGHPFAVAVFEDYVWFSDWAMPSVMRVNKRTGKDRVRLQGSMLKPSSLVVVHPLAKPGADPCLYQNGGCEHICKKRLGTAWCSCREGFMKASDGKTCLALDGHQLLAGGEVDLKNQVTPLDILSKTRVSEDNITESQHMLVAEIMVSDQDDCAPVGCSMYARCISEGEDATCQCLKGFAGDGKLCSDIDECEMGVPVCPPASSKCINTEGGYVCRCSEGYQGDGIHCLDIDECQLGEHSCGENASCTNTEGGYTCMCAGRLSEPGLICPDSTPPPHLREDDHHYSVRNSDSECPLSHDGYCLHDGVCMYIEALDKYACNCVVGYIGERCQYRDLKWWELRHAGHGQQQKVIVVAVCVVVLVMLLLLSLWGAHYYRTQKLLSKNPKNPYEESSRDVRSRRPADTEDGMSSCPQPWFVVIKEHQDLKNGGQPVAGEDGQAADGSMQPTSWRQEPQLCGMGTEQGCWIPVSSDKGSCPQVMERSFHMPSYGTQTLEGGVEKPHSLLSANPLWQQRALDPPHQMELTQ
modifications: Pro-epidermal growth factor
KFtx series
  replication ability of the vaccinia virus by EGF stimulation: not enhanced
ERK
  percentage of the pERK: increased
